According to patent publication US20250042994A1 (HAINAN SIMCERE ZAIMING PHARMACEUTICAL, published 2025):

T1: Human CD19-his protein (human, UniProt P15391 20-291)
T1 construct: bought protein; also called recombinant human CD19-His; CD19 full-length protein; not shown: His tag
T1 sequence (looked up): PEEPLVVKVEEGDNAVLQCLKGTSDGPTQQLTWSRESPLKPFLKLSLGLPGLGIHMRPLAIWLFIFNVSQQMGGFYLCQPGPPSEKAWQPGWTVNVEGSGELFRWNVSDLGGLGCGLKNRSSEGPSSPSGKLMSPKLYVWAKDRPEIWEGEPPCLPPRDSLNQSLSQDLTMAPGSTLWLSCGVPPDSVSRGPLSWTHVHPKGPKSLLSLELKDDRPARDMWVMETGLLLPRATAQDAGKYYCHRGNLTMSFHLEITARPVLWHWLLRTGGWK

T2: human CD19 exon1-3-His tag protein (human, UniProt P15391 20-186, limits assumed)
T2 construct: membrane-distal part of the extracellular region, made in HEK293E cells; not shown: His tag
T2 sequence (looked up): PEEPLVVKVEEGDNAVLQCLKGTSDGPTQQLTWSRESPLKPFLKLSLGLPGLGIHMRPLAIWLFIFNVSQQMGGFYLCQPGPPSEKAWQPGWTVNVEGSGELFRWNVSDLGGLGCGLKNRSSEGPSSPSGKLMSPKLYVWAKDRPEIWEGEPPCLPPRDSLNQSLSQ

T3: human CD19 on Raji cells (human, UniProt P15391 20-556)
T3 construct: whole, on cells
T3 sequence (looked up): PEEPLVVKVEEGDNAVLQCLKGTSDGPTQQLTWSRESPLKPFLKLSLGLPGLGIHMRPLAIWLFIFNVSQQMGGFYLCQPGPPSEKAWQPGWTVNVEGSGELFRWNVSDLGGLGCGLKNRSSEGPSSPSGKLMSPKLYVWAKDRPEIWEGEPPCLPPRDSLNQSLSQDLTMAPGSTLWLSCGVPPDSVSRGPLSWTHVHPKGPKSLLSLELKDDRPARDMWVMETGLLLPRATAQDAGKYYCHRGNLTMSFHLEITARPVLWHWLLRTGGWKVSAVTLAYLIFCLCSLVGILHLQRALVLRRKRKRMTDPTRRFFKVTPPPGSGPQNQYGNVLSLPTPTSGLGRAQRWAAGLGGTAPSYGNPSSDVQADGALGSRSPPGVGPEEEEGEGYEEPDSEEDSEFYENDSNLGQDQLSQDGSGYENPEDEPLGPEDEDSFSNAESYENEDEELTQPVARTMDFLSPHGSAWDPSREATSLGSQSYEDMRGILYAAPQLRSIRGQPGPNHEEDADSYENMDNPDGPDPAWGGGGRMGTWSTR

T4: human CD19 on CHO-K1-human CD19 cells (human, UniProt P15391 20-556)
T4 construct: whole, on cells; also called CHO-K1-human CD19-2C8
T4 sequence (looked up): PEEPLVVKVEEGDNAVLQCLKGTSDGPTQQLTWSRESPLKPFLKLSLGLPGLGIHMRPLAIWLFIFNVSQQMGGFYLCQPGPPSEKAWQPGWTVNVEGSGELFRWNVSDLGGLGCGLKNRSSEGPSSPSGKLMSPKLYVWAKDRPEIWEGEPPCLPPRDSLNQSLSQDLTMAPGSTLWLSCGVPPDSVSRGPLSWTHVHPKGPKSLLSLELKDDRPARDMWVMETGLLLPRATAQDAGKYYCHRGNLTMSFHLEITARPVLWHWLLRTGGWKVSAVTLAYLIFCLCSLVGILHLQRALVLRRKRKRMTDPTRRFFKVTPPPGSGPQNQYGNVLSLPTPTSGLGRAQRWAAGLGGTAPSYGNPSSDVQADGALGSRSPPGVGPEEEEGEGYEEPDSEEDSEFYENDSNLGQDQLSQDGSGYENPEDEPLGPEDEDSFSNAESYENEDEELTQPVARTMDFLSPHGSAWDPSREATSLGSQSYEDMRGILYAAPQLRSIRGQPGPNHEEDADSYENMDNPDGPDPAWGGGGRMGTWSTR


How the values were obtained:
Human CD19-his protein [1] = biological target: T1, Human CD19-his protein; assay: ELISA on coated human CD19-His
Human CD19-his protein [2] = biological target: T1, Human CD19-his protein; assay: ELISA, coated human CD19-His
Experimental: Human CD19-his protein (purchased from ACROBiosystems, catalog number: CD9-H52H2) was diluted with PBS to a final concentration of 4 μg/mL, and then added to a 96-well ELISA plate at 100 μl/well. The plate was sealed with a plastic film and incubated overnight at 4° C., the plate was washed 2 times with PBS the next day, and then a blocking solution [PBS+2% (w/w) BSA] was added for blocking at room temperature for 2 h. The blocking solution was poured off, and 100 nM gradiently diluted CD19 chimeric antibody or control antibody was added at 50 μl/well. After incubation at 37° C. for 2 h, the plate was washed 3 times with PBS. […] TMB substrate was added at 50 μl/well, and incubated at room temperature for 10 min, and then a stop solution (1.0 N HCl) was added at 50 μl/well. The OD450 nm values were read by an ELISA microplate reader (Multimode Plate Reader, EnSight, purchased from Perkin Elmer).

[3] = biological target: T2, human CD19 exon1-3-His tag protein; assay: ELISA, coated human CD19 exon 1-3-His
Human CD19-his protein [4] = biological target: T1, Human CD19-his protein; assay: SPR Biacore, method of example 7.1, human CD19-His
Experimental: A sample buffer and a running buffer were HBS-EP+ (10 mM HEPES, 150 mM NaCl, 3 mM EDTA and 0.05% surfactant P20) (GE Healthcare; BR-1006-69). The flow-through cell was set to 25° C. The sample block was set to 16° C. Both were pretreated with the running buffer. In each cycle, an antibody to be detected was first captured with a Protein A chip, and then a single concentration of CD19 antigen protein was injected. The binding and dissociation processes of the antibody and the antigen protein were recorded, and finally Glycine pH 1.5 (GE Healthcare; BR-1003-54) was used to complete chip regeneration. The binding was measured by injecting different concentrations of recombinant human CD19-His proteins in a solution for 240 s with a flow rate of 30 μl/min. The concentration started from 200 nM (see the detailed results for the actual concentration in the test) and was diluted at 1:1, making a total of 5 concentrations. The dissociation phase was monitored for up to 600 s and was triggered by switching from sample solution to running buffer. The surface was regenerated by washing with a 10 mM glycine solution (pH 1.5) for 30 s at a flow rate of 30 μl/min. Bulk refractive index difference was corrected by subtracting the response obtained from the goat anti-human Fc surface. Blank injection was also subtracted (=double reference). For calculation of apparent KD and other kinetic parameters, Langmuir 1:1 model was used.
SPR (biacore) detection and data analysis were performed according to the method in example 7.1.

human CD19 on Raji cells = biological target: T3, human CD19 on Raji cells; assay: FACS on Raji cells
Experimental: (§1) After the digestion was terminated, the cells were washed 2 times with a PBS buffer; and for suspension cell Raji, the supernatant of the medium was discarded by directly centrifugation, and the cell pellet was washed 2 times with PBS. After counting the cells in the previous step, the cell pellet was resuspended with [PBS+2% (w/w) BSA] blocking solution to 2×10⁶ cells/ml, and added to a 96-well FACS reaction plate at 50 μl/well, and then the sample to be tested was added at 50 μl/well, and incubated on ice for 2 h. The obtained mixture was centrifuged and washed 3 times with a PBS buffer. […] The obtained mixture was centrifuged and washed 5 times with a PBS buffer, and FACS (FACS Canto™, purchased from BD Company) was used for detection and result analysis. Data analysis was performed by software (FlowJo) to obtain the mean fluorescence intensity (MFI) of the cells. And then software (GraphPad Prism8) was used for analysis, data fitting, and EC50 value calculation. […] The same method was used to detect the binding of the chimeric antibodies to endogenous CD19-negative cells, MoLT4 cells (purchased from ATCC, CRL-1582), and CHO-K1 cells.

[5] = biological target: T4, human CD19 on CHO-K1-human CD19 cells; assay: FACS on CHO-K1-human CD19 cells
Experimental: as §1

Row | Binder | EC50 (read off the curve) (Human CD19-his protein [1]) [nM] | OD450 at 0.0001 nM (Human CD19-his protein [2]) [OD450] | OD450 at 0.001 nM (Human CD19-his protein [2]) [OD450] | OD450 at 0.01 nM (Human CD19-his protein [2]) [OD450] | OD450 at 0.10 nM (Human CD19-his protein [2]) [OD450] | OD450 at 1.00 nM (Human CD19-his protein [2]) [OD450] | OD450 at 10 nM (Human CD19-his protein [2]) [OD450] | OD450 at 100 nM (Human CD19-his protein [2]) [OD450] | OD450 at 0.0001 nM [3] [OD450] | OD450 at 0.001 nM [3] [OD450] | OD450 at 0.01 nM [3] [OD450] | OD450 at 0.10 nM [3] [OD450] | OD450 at 1.00 nM [3] [OD450] | OD450 at 10 nM [3] [OD450] | OD450 at 100 nM [3] [OD450] | Kd (Human CD19-his protein [4]) [nM] | koff (Human CD19-his protein [4]) [s⁻¹] | kon (Human CD19-his protein [4]) [M⁻¹ s⁻¹] | EC50 (human CD19 on Raji cells) [nM] | Maximum mean fluorescence intensity (human CD19 on Raji cells) [MFI] | further results
1 | F3.121.4-L1H2 (antibody, mouse IgG1, kappa, V domains shown, humanized antibody of F3.121.4, VL1+VH2, murine IgG1 constant regions) VH: EVQLVQSGAEVKKPGASVKVSCKASGYTFTNYWMHWVRQAPGQGLEWMGEIDPSDNYANYNQEFQGRVTITVDKSASTAYMELSSLRSEDTAVYYCARHDGYFGALDYWGQGTTVTVSS VL: EIVLTQSPATLSLSPGERATLSCSASSSISSNYLHWYQQKPGQAPRFLIYRTSNLASGIPARFSGSGSGTDFTLTISSLEPEDFAVYYCQQASSIPRMFTFGQGTKLEIKR | ~0.05 | 0.1 | 0.13 | 0.39 | 1.7 | 2.68 | 2.58 | 3 | 0.05 | 0.05 | 0.05 | 0.05 | 0.05 | 0.06 | 0.09 | 0.00058 | 6.84e-08 | 118000 | 0.43 | 31700 | EC50 [5]: 1.23 nM; Maximum mean fluorescence intensity [5]: 54200 MFI
2 | F3.121.4-L1H3 (antibody, mouse IgG1, kappa, humanized antibody of F3.121.4, VL1+VH3, murine IgG1 constant regions) heavy: EVQLVQSGAEVKKPGASVKVSCKASGYTFTNYWMHWVRQRPGQGLEWMGEIDPSDNYANYNQEFQGRVTITVDKSASTAYMELSSLRSEDTAVYYCARHDGYFGALDYWGQGTTVTVSSAKTTPPSVYPLAPGSAAQTNSMVTLGCLVKGYFPEPVTVTWNSGSLSSGVHTFPAVLQSDLYTLSSSVTVPSSTWPSETVTCNVAHPASSTKVDKKIVPRDCGCKPCICTVPEVSSVFIFPPKPKDVLTITLTPKVTCVVVDISKDDPEVQFSWFVDDVEVHTAQTQPREEQFNSTFRSVSELPIMHQDWLNGKEFKCRVNSAAFPAPIEKTISKTKGRPKAPQVYTIPPPKEQMAKDKVSLTCMITDFFPEDITVEWQWNGQPAENYKNTQPIMDTDGSYFVYSKLNVQKSNWEAGNTFTCSVLHEGLHNHHTEKSLSHSPGK light: EIVLTQSPATLSLSPGERATLSCSASSSISSNYLHWYQQKPGQAPRFLIYRTSNLASGIPARFSGSGSGTDFTLTISSLEPEDFAVYYCQQASSIPRMFTFGQGTKLEIKRADAAPTVSIFPPSSEQLTSGGASVVCFLNNFYPKDINVKWKIDGSERQNGVLNSWTDQDSKDSTYSMSSTLTLTKDEYERHNSYTCEATHKTSTSPIVKSFNRNEC | ~0.05 | 0.1 | 0.14 | 0.42 | 1.61 | 2.55 | 2.49 | 3.09 | 0.05 | 0.05 | 0.05 | 0.05 | 0.05 | 0.05 | 0.09 | 0.00502 | 6.17e-07 | 123000 | 0.46 | 32000 | EC50 [5]: 1.1 nM; Maximum mean fluorescence intensity [5]: 54400 MFI
3 | F3.121.4-L1H1 (antibody, mouse IgG1, kappa, V domains shown, humanized antibody of F3.121.4, VL1+VH1, murine IgG1 constant regions) VH: EVQLVQSGAEVKKPGASVKVSCKASGYTFTNYWMHWVRQAPGQRLEWMGEIDPSDNYANYNQEFQGRVTITVDKSASTAYMELSSLRSEDTAVYYCARHDGYFGALDYWGQGTTVTVSS VL: EIVLTQSPATLSLSPGERATLSCSASSSISSNYLHWYQQKPGQAPRFLIYRTSNLASGIPARFSGSGSGTDFTLTISSLEPEDFAVYYCQQASSIPRMFTFGQGTKLEIKR | ~0.05 | 0.12 | 0.16 | 0.44 | 1.79 | 2.73 | 2.64 | 2.84 | 0.07 | 0.06 | 0.06 | 0.07 | 0.08 | 0.08 | 0.11 | 0.0284 | 3.45e-06 | 121000 | 0.43 | 30500 | EC50 [5]: 1.18 nM; Maximum mean fluorescence intensity [5]: 51600 MFI
